Test results published in patent US20200199241A1 (Chugai, published 2020).

T1: human FcγRIIa(R) (human, UniProt P12318 36-217)
T1 construct: also called FcgRIIaR; hFcgRIIa(R)
T1 chain: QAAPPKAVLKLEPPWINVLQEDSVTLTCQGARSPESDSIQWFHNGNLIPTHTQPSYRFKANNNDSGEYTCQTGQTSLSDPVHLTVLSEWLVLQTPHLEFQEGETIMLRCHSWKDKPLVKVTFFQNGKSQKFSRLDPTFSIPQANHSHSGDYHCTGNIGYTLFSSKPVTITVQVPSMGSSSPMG

T2: human FcγRIIa(H) (human, UniProt P12318 36-217)
T2 construct: also called FcgRIIaH; hFcgRIIa(H)
T2 sequence: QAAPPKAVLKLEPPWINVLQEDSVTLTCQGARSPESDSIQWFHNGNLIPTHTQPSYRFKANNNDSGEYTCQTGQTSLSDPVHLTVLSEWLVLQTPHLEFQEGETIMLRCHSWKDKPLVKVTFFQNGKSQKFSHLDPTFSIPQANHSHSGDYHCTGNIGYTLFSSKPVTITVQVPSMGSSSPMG

T3: human FcγRIIb (human, UniProt P31994 43-217, limits assumed)
T3 construct: also called FcgRIIb; hFcgRIIb
T3 sequence: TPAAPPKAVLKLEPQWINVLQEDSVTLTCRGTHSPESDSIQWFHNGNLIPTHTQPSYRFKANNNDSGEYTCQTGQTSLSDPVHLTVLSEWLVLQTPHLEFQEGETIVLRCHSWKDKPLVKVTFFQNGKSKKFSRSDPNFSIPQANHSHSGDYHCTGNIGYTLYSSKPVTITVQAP


Columns and labels:
Test in all cases: SPR, captured antibody;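 also: antibody captured on a sensor chip, Fcγ receptor flowed over at 25 °C, receptor binding normalized to the captured antibody amount and expressed relative to the reference antibody ×100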
[1] = target: T4, human FcγRIa (human, UniProt P12314 16-292, limits assumed)
T4 construct: also called FcgRIa; hFcgRIa

[2] = target: T1, human FcγRIIa(R)
[3] = target: T2, human FcγRIIa(H)
[4] = target: T3, human FcγRIIb

T4 sequence (P12314 16-292 limits assumed): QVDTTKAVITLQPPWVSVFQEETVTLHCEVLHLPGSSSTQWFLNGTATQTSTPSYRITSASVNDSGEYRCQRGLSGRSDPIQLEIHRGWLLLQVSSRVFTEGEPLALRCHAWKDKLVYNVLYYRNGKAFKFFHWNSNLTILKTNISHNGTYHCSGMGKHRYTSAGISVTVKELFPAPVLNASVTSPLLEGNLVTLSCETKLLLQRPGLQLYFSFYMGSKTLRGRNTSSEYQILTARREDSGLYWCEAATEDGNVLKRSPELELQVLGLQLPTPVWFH

Binder	relative binding activity [1]	relative binding activity [2]	relative binding activity [3]	relative binding activity [4]
GpH7-B3 N325V/GpL16-k0 (antibody, human IgG1, B3 variant; copies: 2 + 2) heavy: not shown light: DIVMTQSPLSLPVTPGEPASISCQASESLVHSNRNTYLHWYLQKPGQSPQLLIYKVSNRFSGVPDRFSGSGSGTDFTLKISRVEAEDVGVYYCSQNTHVPPTFGQGTKVEIE	84 % of GpH7-B3/GpL16-k0	37 % of GpH7-B3/GpL16-k0	9 % of GpH7-B3/GpL16-k0	35 % of GpH7-B3/GpL16-k0
GpH7-B3 P329F/GpL16-k0 (antibody, human IgG1, B3 variant; copies: 2 + 2) heavy: not shown light: DIVMTQSPLSLPVTPGEPASISCQASESLVHSNRNTYLHWYLQKPGQSPQLLIYKVSNRFSGVPDRFSGSGSGTDFTLKISRVEAEDVGVYYCSQNTHVPPTFGQGTKVEIE	79 % of GpH7-B3/GpL16-k0	1 % of GpH7-B3/GpL16-k0	1 % of GpH7-B3/GpL16-k0	0 % of GpH7-B3/GpL16-k0
GpH7-B3 P329G/GpL16-k0 (antibody, human IgG1, B3 variant; copies: 2 + 2) heavy: not shown light: DIVMTQSPLSLPVTPGEPASISCQASESLVHSNRNTYLHWYLQKPGQSPQLLIYKVSNRFSGVPDRFSGSGSGTDFTLKISRVEAEDVGVYYCSQNTHVPPTFGQGTKVEIE	92 % of GpH7-B3/GpL16-k0	1 % of GpH7-B3/GpL16-k0	1 % of GpH7-B3/GpL16-k0	0 % of GpH7-B3/GpL16-k0
GpH7-B3 P271T/GpL16-k0 (antibody, human IgG1, B3 variant; copies: 2 + 2) heavy: not shown light: DIVMTQSPLSLPVTPGEPASISCQASESLVHSNRNTYLHWYLQKPGQSPQLLIYKVSNRFSGVPDRFSGSGSGTDFTLKISRVEAEDVGVYYCSQNTHVPPTFGQGTKVEIE	98 % of GpH7-B3/GpL16-k0	73 % of GpH7-B3/GpL16-k0	42 % of GpH7-B3/GpL16-k0	78 % of GpH7-B3/GpL16-k0
GpH7-B3 P271Y/GpL16-k0 (antibody, human IgG1, B3 variant; copies: 2 + 2) heavy: not shown light: DIVMTQSPLSLPVTPGEPASISCQASESLVHSNRNTYLHWYLQKPGQSPQLLIYKVSNRFSGVPDRFSGSGSGTDFTLKISRVEAEDVGVYYCSQNTHVPPTFGQGTKVEIE	98 % of GpH7-B3/GpL16-k0	38 % of GpH7-B3/GpL16-k0	48 % of GpH7-B3/GpL16-k0	28 % of GpH7-B3/GpL16-k0
GpH7-B3 P329I/GpL16-k0 (antibody, human IgG1, B3 variant; copies: 2 + 2) heavy: not shown light: DIVMTQSPLSLPVTPGEPASISCQASESLVHSNRNTYLHWYLQKPGQSPQLLIYKVSNRFSGVPDRFSGSGSGTDFTLKISRVEAEDVGVYYCSQNTHVPPTFGQGTKVEIE	89 % of GpH7-B3/GpL16-k0	22 % of GpH7-B3/GpL16-k0	21 % of GpH7-B3/GpL16-k0	13 % of GpH7-B3/GpL16-k0
GpH7-B3 N325Y/GpL16-k0 (antibody, human IgG1, B3 variant; copies: 2 + 2) heavy: not shown light: DIVMTQSPLSLPVTPGEPASISCQASESLVHSNRNTYLHWYLQKPGQSPQLLIYKVSNRFSGVPDRFSGSGSGTDFTLKISRVEAEDVGVYYCSQNTHVPPTFGQGTKVEIE	92 % of GpH7-B3/GpL16-k0	42 % of GpH7-B3/GpL16-k0	9 % of GpH7-B3/GpL16-k0	39 % of GpH7-B3/GpL16-k0
GpH7-B3 P329M/GpL16-k0 (antibody, human IgG1, B3 variant; copies: 2 + 2) heavy: not shown light: DIVMTQSPLSLPVTPGEPASISCQASESLVHSNRNTYLHWYLQKPGQSPQLLIYKVSNRFSGVPDRFSGSGSGTDFTLKISRVEAEDVGVYYCSQNTHVPPTFGQGTKVEIE	69 % of GpH7-B3/GpL16-k0	2 % of GpH7-B3/GpL16-k0	2 % of GpH7-B3/GpL16-k0	0 % of GpH7-B3/GpL16-k0
GpH7-B3 P271W/GpL16-k0 (antibody, human IgG1, B3 variant; copies: 2 + 2) heavy: not shown light: DIVMTQSPLSLPVTPGEPASISCQASESLVHSNRNTYLHWYLQKPGQSPQLLIYKVSNRFSGVPDRFSGSGSGTDFTLKISRVEAEDVGVYYCSQNTHVPPTFGQGTKVEIE	100 % of GpH7-B3/GpL16-k0	46 % of GpH7-B3/GpL16-k0	75 % of GpH7-B3/GpL16-k0	33 % of GpH7-B3/GpL16-k0
GpH7-B3 N325W/GpL16-k0 (antibody, human IgG1, B3 variant; copies: 2 + 2) heavy: not shown light: DIVMTQSPLSLPVTPGEPASISCQASESLVHSNRNTYLHWYLQKPGQSPQLLIYKVSNRFSGVPDRFSGSGSGTDFTLKISRVEAEDVGVYYCSQNTHVPPTFGQGTKVEIE	94 % of GpH7-B3/GpL16-k0	55 % of GpH7-B3/GpL16-k0	4 % of GpH7-B3/GpL16-k0	48 % of GpH7-B3/GpL16-k0
GpH7-B3 P271H/GpL16-k0 (antibody, human IgG1, B3 variant; copies: 2 + 2) heavy: not shown light: DIVMTQSPLSLPVTPGEPASISCQASESLVHSNRNTYLHWYLQKPGQSPQLLIYKVSNRFSGVPDRFSGSGSGTDFTLKISRVEAEDVGVYYCSQNTHVPPTFGQGTKVEIE	98 % of GpH7-B3/GpL16-k0	58 % of GpH7-B3/GpL16-k0	58 % of GpH7-B3/GpL16-k0	53 % of GpH7-B3/GpL16-k0
GpH7-B3 P271R/GpL16-k0 (antibody, human IgG1, B3 variant; copies: 2 + 2) heavy: not shown light: DIVMTQSPLSLPVTPGEPASISCQASESLVHSNRNTYLHWYLQKPGQSPQLLIYKVSNRFSGVPDRFSGSGSGTDFTLKISRVEAEDVGVYYCSQNTHVPPTFGQGTKVEIE	100 % of GpH7-B3/GpL16-k0	89 % of GpH7-B3/GpL16-k0	99 % of GpH7-B3/GpL16-k0	87 % of GpH7-B3/GpL16-k0
GpH7-B3 P329D/GpL16-k0 (antibody, human IgG1, B3 variant; copies: 2 + 2) heavy: not shown light: DIVMTQSPLSLPVTPGEPASISCQASESLVHSNRNTYLHWYLQKPGQSPQLLIYKVSNRFSGVPDRFSGSGSGTDFTLKISRVEAEDVGVYYCSQNTHVPPTFGQGTKVEIE	23 % of GpH7-B3/GpL16-k0	-1 % of GpH7-B3/GpL16-k0	-1 % of GpH7-B3/GpL16-k0	-2 % of GpH7-B3/GpL16-k0
GpH7-B3 P271S/GpL16-k0 (antibody, human IgG1, B3 variant; copies: 2 + 2) heavy: not shown light: DIVMTQSPLSLPVTPGEPASISCQASESLVHSNRNTYLHWYLQKPGQSPQLLIYKVSNRFSGVPDRFSGSGSGTDFTLKISRVEAEDVGVYYCSQNTHVPPTFGQGTKVEIE	99 % of GpH7-B3/GpL16-k0	83 % of GpH7-B3/GpL16-k0	67 % of GpH7-B3/GpL16-k0	82 % of GpH7-B3/GpL16-k0
GpH7-B3 P329L/GpL16-k0 (antibody, human IgG1, B3 variant; copies: 2 + 2) heavy: not shown light: DIVMTQSPLSLPVTPGEPASISCQASESLVHSNRNTYLHWYLQKPGQSPQLLIYKVSNRFSGVPDRFSGSGSGTDFTLKISRVEAEDVGVYYCSQNTHVPPTFGQGTKVEIE	68 % of GpH7-B3/GpL16-k0	2 % of GpH7-B3/GpL16-k0	2 % of GpH7-B3/GpL16-k0	1 % of GpH7-B3/GpL16-k0
GpH7-B3 P271F/GpL16-k0 (antibody, human IgG1, B3 variant; copies: 2 + 2) heavy: not shown light: DIVMTQSPLSLPVTPGEPASISCQASESLVHSNRNTYLHWYLQKPGQSPQLLIYKVSNRFSGVPDRFSGSGSGTDFTLKISRVEAEDVGVYYCSQNTHVPPTFGQGTKVEIE	99 % of GpH7-B3/GpL16-k0	49 % of GpH7-B3/GpL16-k0	55 % of GpH7-B3/GpL16-k0	38 % of GpH7-B3/GpL16-k0
GpH7-B3 P329H/GpL16-k0 (antibody, human IgG1, B3 variant; copies: 2 + 2) heavy: not shown light: DIVMTQSPLSLPVTPGEPASISCQASESLVHSNRNTYLHWYLQKPGQSPQLLIYKVSNRFSGVPDRFSGSGSGTDFTLKISRVEAEDVGVYYCSQNTHVPPTFGQGTKVEIE	50 % of GpH7-B3/GpL16-k0	-1 % of GpH7-B3/GpL16-k0	0 % of GpH7-B3/GpL16-k0	-3 % of GpH7-B3/GpL16-k0
GpH7-B3 P329E/GpL16-k0 (antibody, human IgG1, B3 variant; copies: 2 + 2) heavy: not shown light: DIVMTQSPLSLPVTPGEPASISCQASESLVHSNRNTYLHWYLQKPGQSPQLLIYKVSNRFSGVPDRFSGSGSGTDFTLKISRVEAEDVGVYYCSQNTHVPPTFGQGTKVEIE	33 % of GpH7-B3/GpL16-k0	-1 % of GpH7-B3/GpL16-k0	0 % of GpH7-B3/GpL16-k0	-2 % of GpH7-B3/GpL16-k0
